Measurements from US20130136748A1 (Ablynx, published 2013).
Where “and” joins values, the source holds several entries; their conditions need not be identical. Equal values may be shown once. Read-outs that look alike come from different tables or passages of the source.

T1: cHER3ECD (Maccaca fascicularis HER3 extracellular domain) (Macaca fascicularis, UniProt P21860 20-643 (human entry))
T1 construct: also called cyno HER3ECD; cyno HER3-ECD
T1 chain: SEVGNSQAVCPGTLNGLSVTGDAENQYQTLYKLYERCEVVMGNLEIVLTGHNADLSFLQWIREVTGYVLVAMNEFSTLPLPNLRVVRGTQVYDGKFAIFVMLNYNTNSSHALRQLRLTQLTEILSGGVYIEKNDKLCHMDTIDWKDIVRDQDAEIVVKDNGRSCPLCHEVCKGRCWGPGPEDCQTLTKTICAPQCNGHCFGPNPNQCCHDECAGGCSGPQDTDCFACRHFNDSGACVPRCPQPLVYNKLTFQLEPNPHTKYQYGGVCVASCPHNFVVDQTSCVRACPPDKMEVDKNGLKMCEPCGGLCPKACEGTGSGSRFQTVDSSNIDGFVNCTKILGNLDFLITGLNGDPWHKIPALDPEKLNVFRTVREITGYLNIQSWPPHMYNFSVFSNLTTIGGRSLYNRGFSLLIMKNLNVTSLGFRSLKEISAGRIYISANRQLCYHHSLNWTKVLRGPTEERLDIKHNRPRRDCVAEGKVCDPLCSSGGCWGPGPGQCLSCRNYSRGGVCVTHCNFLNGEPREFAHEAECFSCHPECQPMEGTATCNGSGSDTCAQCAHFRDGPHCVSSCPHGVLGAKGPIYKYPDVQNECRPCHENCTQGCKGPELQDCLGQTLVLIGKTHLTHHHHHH

T2: Chimeric chicken Her3-human domain 2 (AA207-328 human) (chicken/human chimera)
T2 construct: Transmembrane and extracellular regions, on HEK293 cells
T2 chain: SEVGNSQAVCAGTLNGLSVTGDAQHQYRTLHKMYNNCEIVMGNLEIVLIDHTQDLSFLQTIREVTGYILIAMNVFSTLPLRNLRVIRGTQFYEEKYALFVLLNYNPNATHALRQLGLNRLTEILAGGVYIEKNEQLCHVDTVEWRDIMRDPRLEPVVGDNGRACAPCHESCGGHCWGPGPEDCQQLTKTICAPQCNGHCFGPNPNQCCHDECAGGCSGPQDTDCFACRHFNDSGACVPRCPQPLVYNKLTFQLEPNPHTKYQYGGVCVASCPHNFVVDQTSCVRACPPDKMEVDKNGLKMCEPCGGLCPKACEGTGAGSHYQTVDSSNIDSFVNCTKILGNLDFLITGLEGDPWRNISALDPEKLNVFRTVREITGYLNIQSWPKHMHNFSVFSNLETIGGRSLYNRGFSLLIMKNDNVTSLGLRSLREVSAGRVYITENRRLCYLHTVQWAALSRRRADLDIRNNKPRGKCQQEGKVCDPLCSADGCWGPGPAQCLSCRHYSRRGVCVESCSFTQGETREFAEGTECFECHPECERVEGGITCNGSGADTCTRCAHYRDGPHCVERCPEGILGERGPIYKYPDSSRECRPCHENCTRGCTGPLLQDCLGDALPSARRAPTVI


Tests used:
hHER3 full length [1] = molecular target: T3, hHER3 full length (human, UniProt P21860 20-1342); assay: cell-based or functional assay
human HER2 [2] = molecular target: T4, human HER2 (human, UniProt P04626 23-1255); assay: FACS CHO-HER2, 667 nM
T4 construct: also called hHER2

hHER3 full length [3] = molecular target: T3, hHER3 full length; assay: FACS, 400 nM, competitor 23F05-biotin
human HER4 [4] = molecular target: T5, human HER4 (human, UniProt Q15303 26-1308); assay: FACS CHO-HER4, 667 nM
human HER1 [5] = molecular target: T6, human HER1 (human, UniProt P00533 25-1210); assay: FACS CHO-HER1, 222 nM
T6 construct: also called EGFR; ErbB1

hHER3 full length [6] = molecular target: T3, hHER3 full length; assay: FACS, 400 nM, competitor 17C08-biotin
human HER4 [7] = molecular target: T5, human HER4; assay: FACS, CHO-HER4
[8] = molecular target: T7, human HER3-Fc (R&D Systems, 348-RB) (human, UniProt P21860 20-643); assay: SPR, HER3-Fc captured by anti-Fc
T7 construct: Bought; also called hHER3-Fc; Fc-HER3; Fc part of the bought chimera not given, not described

hHER3 full length [9] = molecular target: T3, hHER3 full length; assay: FACS, 400 nM, competitor 04C07-biotin
human HER2 [10] = molecular target: T4, human HER2; assay: FACS, CHO-HER2
hHER3 full length [11] = molecular target: T3, hHER3 full length; assay: cell-based or functional assay; remark: listed apart in the source
[12] = molecular target: T1, cHER3ECD (Maccaca fascicularis HER3 …); assay: ELISA, coated cHER3-ECD
[13] = molecular target: T8, hHER3 ECD (human HER3 extracellular domain) (human, UniProt P21860 20-643); assay: ELISA, coated hHER3-ECD
T8 construct: also called recombinant HER3-ECD

human HER1 [14] = molecular target: T6, human HER1; assay: FACS CHO-HER1, 2000 nM
hHER3 full length [15] = molecular target: T3, hHER3 full length; assay: FACS, 400 nM, competitor 21B02-biotin
human HER4 [16] = molecular target: T5, human HER4; assay: FACS CHO-HER4, 2000 nM
human HER1 [17] = molecular target: T6, human HER1; assay: FACS CHO-HER1, 667 nM
[18] = molecular target: T2, Chimeric chicken Her3-human domain 2 …; assay: FACS, HEK293 with chimeric HER3
human HER1 [19] = molecular target: T6, human HER1; assay: FACS, CHO-HER1
human HER2 [20] = molecular target: T4, human HER2; assay: FACS CHO-HER2, 222 nM
hHER3 full length [21] = molecular target: T3, hHER3 full length; assay: FACS, 400 nM, competitor 04F10-biotin
human HER4 [22] = molecular target: T5, human HER4; assay: FACS CHO-HER4, 222 nM
hHER3 full length [23] = molecular target: T3, hHER3 full length; assay: FACS, 400 nM, competitor 18E08-biotin
human HER2 [24] = molecular target: T4, human HER2; assay: FACS CHO-HER2, 2000 nM
[25] = molecular target: T7, human HER3-Fc (R&D Systems, 348-RB); assay: HRG competition alphascreen
[26] = molecular target: T8, hHER3 ECD (human HER3 extracellular …); assay: SPR off rate on HER3-ECD
hHER3 full length [27] = molecular target: T3, hHER3 full length; assay: FACS competition with HRG1-β1-EGF, CHO-HER3
hHER3 full length [28] = molecular target: T3, hHER3 full length; assay: cell-based or functional assay; remark: listed apart in the source
[29] = molecular target: T7, human HER3-Fc (R&D Systems, 348-RB); assay: HRG competition alphascreen; remark: listed apart in the source
[30] = molecular target: T8, hHER3 ECD (human HER3 extracellular …); assay: SPR off rate on HER3-ECD; remark: listed apart in the source
hHER3 full length [31] = molecular target: T3, hHER3 full length; assay: cell-based or functional assay; remark: listed apart in the source
[32] = molecular target: T7, human HER3-Fc (R&D Systems, 348-RB); assay: HRG competition alphascreen; remark: listed apart in the source

T5 sequence (Q15303 26-1308 limits assumed): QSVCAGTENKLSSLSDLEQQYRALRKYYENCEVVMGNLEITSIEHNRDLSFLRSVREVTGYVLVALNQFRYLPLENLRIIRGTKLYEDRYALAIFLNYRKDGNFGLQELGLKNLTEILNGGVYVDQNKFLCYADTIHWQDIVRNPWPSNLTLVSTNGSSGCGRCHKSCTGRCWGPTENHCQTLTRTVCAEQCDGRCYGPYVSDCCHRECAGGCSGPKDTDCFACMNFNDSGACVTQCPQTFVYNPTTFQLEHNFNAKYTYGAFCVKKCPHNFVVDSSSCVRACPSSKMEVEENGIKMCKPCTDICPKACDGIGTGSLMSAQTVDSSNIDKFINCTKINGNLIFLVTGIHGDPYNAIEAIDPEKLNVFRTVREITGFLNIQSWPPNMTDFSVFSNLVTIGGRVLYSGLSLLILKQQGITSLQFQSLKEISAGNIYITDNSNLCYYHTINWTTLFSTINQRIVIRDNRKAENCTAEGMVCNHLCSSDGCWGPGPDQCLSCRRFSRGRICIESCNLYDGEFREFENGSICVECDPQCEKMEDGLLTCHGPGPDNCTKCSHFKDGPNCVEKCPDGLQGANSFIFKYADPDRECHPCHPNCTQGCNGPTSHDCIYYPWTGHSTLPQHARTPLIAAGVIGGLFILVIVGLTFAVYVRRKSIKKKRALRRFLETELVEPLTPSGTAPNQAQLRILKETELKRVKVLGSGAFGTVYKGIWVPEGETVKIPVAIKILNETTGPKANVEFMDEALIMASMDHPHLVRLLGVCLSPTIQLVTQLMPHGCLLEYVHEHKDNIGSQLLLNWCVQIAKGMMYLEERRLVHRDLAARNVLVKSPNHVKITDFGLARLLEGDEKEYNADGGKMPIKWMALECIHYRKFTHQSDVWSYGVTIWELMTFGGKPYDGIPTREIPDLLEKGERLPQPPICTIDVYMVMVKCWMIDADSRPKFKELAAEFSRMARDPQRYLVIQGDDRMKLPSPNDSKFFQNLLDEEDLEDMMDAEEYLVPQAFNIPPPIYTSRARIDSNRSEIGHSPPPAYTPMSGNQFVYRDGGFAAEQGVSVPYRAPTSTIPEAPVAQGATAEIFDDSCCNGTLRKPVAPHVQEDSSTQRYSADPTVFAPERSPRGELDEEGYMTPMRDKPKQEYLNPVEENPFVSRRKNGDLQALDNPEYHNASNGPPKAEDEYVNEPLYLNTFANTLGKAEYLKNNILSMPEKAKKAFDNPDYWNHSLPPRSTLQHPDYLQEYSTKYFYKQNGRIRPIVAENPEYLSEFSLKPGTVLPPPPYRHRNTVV

IC50, HRG1-β1 induced pHER3, MCF-7 (hHER3 full length [1]) [M]	IC50, HRG1-β1 induced pHER3, MDA-MB468 (hHER3 full length [1]) [M]	MCF (human HER2 [2])	% competition (hHER3 full length [3]) [%]	MCF (human HER4 [4])	MCF (human HER1 [5])	% competition (hHER3 full length [6]) [%]	binding result (human HER4 [7])	Kd [8] [nM]	kon [8] [M⁻¹ s⁻¹]	% competition (hHER3 full length [9]) [%]	binding result (human HER2 [10])	IC50, HRG1-β1 induced pAkt, MCF-7 (hHER3 full length [11]) [M]	EC50 [12] [nM]	EC50 [13] [nM]	MCF (human HER1 [14])	% competition (hHER3 full length [15]) [%]	MCF (human HER4 [16])	MCF (human HER1 [17])	binding result (human HER1 [19])	Binder	also measured
6.39e-08	1.01e-07	52	0	80	61	63	no binding (tested: 2000 nM)	53.8	10400	0	no binding (tested: 2000 nM)	5.69e-08	4.4	4.7	64	4	115	62	no binding (tested: 2000 nM)	18E08 (VHH) VHH: EVQLVESGGGLVQPGGSLRLSCAASGTLFKINAMGWYRQAPGKQRELVALITSSDTTDYAESVEGRFTISRDNTWNAVYLQMNSLKPEDTAVYYCHSDHYSMGVPEKRVIMYGQGTQVTVSS	inhibition of HRG1-β1 induced pERK1/2, MCF-7 (hHER3 full length [11]): < 50 % inhibition; binding result [18]: binds; MCF (human HER2 [20]): 53; % competition (hHER3 full length [21]): 0%; MCF (human HER4 [22]): 91; % competition (hHER3 full length [23]): 86%; MCF (human HER2 [24]): 78
5.34e-09	2.79e-08	86	0	90	85	0	no binding (tested: 2000 nM)	0.11	390000	100	no binding (tested: 2000 nM)	7.83e-09	0.66	0.63	49	0	116	64	no binding (tested: 2000 nM)	17B05 (VHH, also called HER3MS17B05; HER3MS017B05) VHH: EVQLVESGGGLVQPGGSLRLSCAASGSIGGLNAMAWYRQAPGKERELVAGIFGVGSTRYADSVKGRFTISRDIAKNTVFLQMNSLNSEDTAVYYCRMSSVTRGSSDYWGQGTQVTVSS	IC50 [25]: 0.78 nM; koff [26]: 0.00018 s⁻¹ and 0.0002 s⁻¹; IC50 (hHER3 full length [27]): 33.4 nM; IC50, HRG1-β1 induced pERK1/2, MCF-7 (hHER3 full length [11]): 2.36e-09 M; IC50, EGF induced pHER3, CHO EGFR/HER3 (hHER3 full length [28]): 3.43e-10 M; IC50, TGFα induced pHER3, CHO EGFR/HER3 (hHER3 full length [28]): 8.15e-10 M; IC50, epiregulin induced pHER3, CHO EGFR/HER3 (hHER3 full length [28]): 2.48e-10 M; % inhibition [29]: 87%; IC50 [29]: 0.755 nM; koff [30]: 0.00018 s⁻¹ and 0.0002 s⁻¹; MCF (human HER2 [20]): 84; % competition (hHER3 full length [21]): 68%; MCF (human HER4 [22]): 142; IC50 pHER3 blocking, HRG stimulated MCF7 (hHER3 full length [31]): 4.52e-09 M; IC50 [32]: 0.34 nM and 0.93 nM; % competition (hHER3 full length [23]): 0%; MCF (human HER2 [24]): 134
